{"source": "the RNAGym collection of RNA variant scans (doi:10.1093/molbev/msab373)", "parents": {"B1": {"name": "Azoarcus group I ribozyme (parent)", "chain": "GUGCCUUGCGCCGGGAAACCACGCAAGGGAUGGUGUCAAAUUCGGCGAAACCUAAGCGCCCGCCCGGGCGUAUGGCAACGCCGAGCCAAGCUUCGGCGCCUGCGCCGAUGAAGGUGUAGAGACUAGACGGCACCCACCUAAGGCAAACGCUAUGGUGAAGGCAUAGUCCAGGGAGUGGCGAAAGUCACACAAACCGG"}}, "data": [{"variants_of": "B1", "experiment": "reverse-splicing fitness (ratio to wild type); higher = more active; in vitro selection; Mg2+ level not given", "method_in_brief": "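An in vitro group I ribozyme library with randomized positions was T7-transcribed and gel-purified. In triplicate, 10 pmol RNA in EPPS pH 7.5 was reacted with 50 pmoles of a 30-nt RNA substrate for 1 h at 37 °C across several added MgCl2 levels (1–48 mM), then stopped with EDTA. Products were reverse transcribed from a substrate-complementary primer, PCR-amplified and sequenced (HiSeq 4000). Fitness is a variant's read proportion after selection over that before, normalised to wild type.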", "values": [{"variant": "GUGCCUUGCGCCGGGAAACCACGCAAGGGAUGGUGUCAAAUUCGGCGAAACCUAAGCGCCCGCCCGGGCGUAUGGCAACGCCGAGCCAAGCUUCGGCGCCUGCGCCGAUGGAGGUGUAGUGACUAGACGGCACCCACCUAAGGCUAACGUUAUGGUGAAGGCAUAGUCUAGGGAGAGGCGAAAGUCACACAAACCGG", "reverse-splicing fitness": 0.0131}, {"variant": "GUGCCUUGCGCCGGGAAACCACGCAAGGGAUGGUGUCAAAUUCGGCGAAACCUAAGCGCCCGCCCGGGCGUAUGGCAACGCCGAGCCAAGCUUCGGCGCCUGCGCCGAUGGAGGUGUAGUGACUAGACGGCACCCACCUAAGGCUAACGUUAUGGUGAAGGCAUAGUCUAGGGAGCGGCGAAAGUCACACAAACCGG", "reverse-splicing fitness": 0.0168}, {"variant": "GUGCCUUGCGCCGGGAAACCACGCAAGGGAUGGUGUCAAAUUCGGCGAAACCUAAGCGCCCGCCCGGGCGUAUGGCAACGCCGAGCCAAGCUUCGGCGCCUGCGCCGAUGGAGGUGUAGUGACUAGACGGCACCCACCUAAGGCUAACGAUAUGGUGAAGGCAUAGUCCAGGGAGCGGCGAAAGUCACACAAACCGG", "reverse-splicing fitness": 0.0372}, {"variant": "GUGCCUUGCGCCGGGAAACCACGCAAGGGAUGGUGUCAAAUUCGGCGAAACCUAAGCGCCCGCCCGGGCGUAUGGCAACGCCGAGCCAAGCUUCGGCGCCUGCGCCGAUGGAGGUGUAGUGACUAGACGGCACCCACCUAAGGCUAACGAUAUGGUGAAGGCAUAGUCCAGGGAGGGGCGAAAGUCACACAAACCGG", "reverse-splicing fitness": 0.018}, {"variant": "GUGCCUUGCGCCGGGAAACCACGCAAGGGAUGGUGUCAAAUUCGGCGAAACCUAAGCGCCCGCCCGGGCGUAUGGCAACGCCGAGCCAAGCUUCGGCGCCUGCGCCGAUGGAGGUGUAGUGACUAGACGGCACCCACCUAAGGCUAACGUUAUGGUGAAGGCAUAGUCGAGGGAGUGGCGAAAGUCACACAAACCGG", "reverse-splicing fitness": 0.0547}, {"variant": "GUGCCUUGCGCCGGGAAACCACGCAAGGGAUGGUGUCAAAUUCGGCGAAACCUAAGCGCCCGCCCGGGCGUAUGGCAACGCCGAGCCAAGCUUCGGCGCCUGCGCCGAUGGAGGUGUAGUGACUAGACGGCACCCACCUAAGGCUAACGUUAUGGUGAAGGCAUAGUCUAGGGAGUGGCGAAAGUCACACAAACCGG", "reverse-splicing fitness": 0.0793}, {"variant": "GUGCCUUGCGCCGGGAAACCACGCAAGGGAUGGUGUCAAAUUCGGCGAAACCUAAGCGCCCGCCCGGGCGUAUGGCAACGCCGAGCCAAGCUUCGGCGCCUGCGCCGAUGGAGGUGUAGUGACUAGACGGCACCCACCUAAGGCUAACGUUAUGGUGAAGGCAUAGUCAAGGGAGUGGCGAAAGUCACACAAACCGG", "reverse-splicing fitness": 0.00473}, {"variant": "GUGCCUUGCGCCGGGAAACCACGCAAGGGAUGGUGUCAAAUUCGGCGAAACCUAAGCGCCCGCCCGGGCGUAUGGCAACGCCGAGCCAAGCUUCGGCGCCUGCGCCGAUGGAGGUGUAGUGACUAGACGGCACCCACCUAAGGCUAACGUUAUGGUGAAGGCAUAGUCGAGGGAGGGGCGAAAGUCACACAAACCGG", "reverse-splicing fitness": 0.00232}, {"variant": "GUGCCUUGCGCCGGGAAACCACGCAAGGGAUGGUGUCAAAUUCGGCGAAACCUAAGCGCCCGCCCGGGCGUAUGGCAACGCCGAGCCAAGCUUCGGCGCCUGCGCCGAUGGAGGUGUAGUGACUAGACGGCACCCACCUAAGGCUAACGUUAUGGUGAAGGCAUAGUCGAGGGAGCGGCGAAAGUCACACAAACCGG", "reverse-splicing fitness": 0.009}, {"variant": "GUGCCUUGCGCCGGGAAACCACGCAAGGGAUGGUGUCAAAUUCGGCGAAACCUAAGCGCCCGCCCGGGCGUAUGGCAACGCCGAGCCAAGCUUCGGCGCCUGCGCCGAUGGAGGUGUAGUGACUAGACGGCACCCACCUAAGGCUAACGUUAUGGUGAAGGCAUAGUCGAGGGAGAGGCGAAAGUCACACAAACCGG", "reverse-splicing fitness": 0.00842}, {"variant": "GUGCCUUGCGCCGGGAAACCACGCAAGGGAUGGUGUCAAAUUCGGCGAAACCUAAGCGCCCGCCCGGGCGUAUGGCAACGCCGAGCCAAGCUUCGGCGCCUGCGCCGAUGGAGGUGUAGUGACUAGACGGCACCCACCUAAGGCUAACGGUAUGGUGAAGGCAUAGUCUAGGGAGCGGCGAAAGUCACACAAACCGG", "reverse-splicing fitness": 0.00372}, {"variant": "GUGCCUUGCGCCGGGAAACCACGCAAGGGAUGGUGUCAAAUUCGGCGAAACCUAAGCGCCCGCCCGGGCGUAUGGCAACGCCGAGCCAAGCUUCGGCGCCUGCGCCGAUGGAGGUGUAGUGACUAGACGGCACCCACCUAAGGCUAACGGUAUGGUGAAGGCAUAGUCUAGGGAGAGGCGAAAGUCACACAAACCGG", "reverse-splicing fitness": 0.00269}, {"variant": "GUGCCUUGCGCCGGGAAACCACGCAAGGGAUGGUGUCAAAUUCGGCGAAACCUAAGCGCCCGCCCGGGCGUAUGGCAACGCCGAGCCAAGCUUCGGCGCCUGCGCCGAUGGAGGUGUAGUGACUAGACGGCACCCACCUAAGGCUAACGGUAUGGUGAAGGCAUAGUCUAGGGAGGGGCGAAAGUCACACAAACCGG", "reverse-splicing fitness": 0.00216}, {"variant": "GUGCCUUGCGCCGGGAAACCACGCAAGGGAUGGUGUCAAAUUCGGCGAAACCUAAGCGCCCGCCCGGGCGUAUGGCAACGCCGAGCCAAGCUUCGGCGCCUGCGCCGAUGGAGGUGUAGUGACUAGACGGCACCCACCUAAGGCUAACGGUAUGGUGAAGGCAUAGUCCAGGGAGUGGCGAAAGUCACACAAACCGG", "reverse-splicing fitness": 0.105}, {"variant": "GUGCCUUGCGCCGGGAAACCACGCAAGGGAUGGUGUCAAAUUCGGCGAAACCUAAGCGCCCGCCCGGGCGUAUGGCAACGCCGAGCCAAGCUUCGGCGCCUGCGCCGAUGGAGGUGUAGUGACUAGACGGCACCCACCUAAGGCUAACGUUAUGGUGAAGGCAUAGUCCAGGGAGUGGCGAAAGUCACACAAACCGG", "reverse-splicing fitness": 0.584}]}]}
